Measured values taken from patent publication US20240156961A1, “TISSUE-SPECIFIC ANTIGENS FOR CANCER IMMUNOTHERAPY” (priority 2020, published 2024).

Tests used:
class I HLA molecules = biological target: T1, class I HLA molecules (Homo sapiens, UniProt P01889); assay: Targeted mass spectrometry MHC-peptide analysis (SureQuant, heavy isotope-labeled synthetic peptides); details: light endogenous vs heavy isotope-labeled synthetic peptide; human prostate specimen; HLA-B*07:02; Skyline software
T1 construct: Frozen cell pellets endogenously expressing MHC molecules (untagged) or biotin acceptor peptide (BAP)-tagged MHC molecules; biotin acceptor peptide (BAP), only in some samples; endogenous in cells; host or cells: Human cell lines (e.g. MDAPCa2b, CAMA1, HCC1500, A375, Expi293, B721) and human tissue (prostate, tumours); some cell samples express BAP-tagged HLA

HLA-A*02:01 [1] = biological target: T2, HLA-A*02:01 (human); assay: MS validation of HLA class I-presented peptide; multiple cell lines and tumor samples
T2 construct: MHC class I molecule expressed by the cells or tissue sample (endogenous or BAP-tagged), immunopurified before peptide elution
Description: (§1) Frozen cell pellets endogenously expressing MHC molecules (untagged) or biotin acceptor peptide (BAP)-tagged MHC molecules were lysed by pipetting and end-over-end rotation for twenty minutes using lysis buffer [20 mM Tris-Cl pH 8, 100 mM NaCl, 6 mM MgCl2, 1.5% (v/v) Triton X-100, 60 mM octyl B-D-glucopyranoside, 0.2 mM of 2-Iodoacetamide, 1 mM EDTA pH 8, 1 mM PMSF, 1× complete EDTA-free protease inhibitor cocktail (Roche)] plus benzonase nuclease for twenty minutes. Tissue samples were homogenized in lysis buffer plus benzonase nuclease. All lysates were cleared by centrifugation. Samples with untagged MHC molecules were subsequently incubated with GammaBind Plus Sepharose Beads (GE Healthcare) pre-charged with a pan-HLA A/B/C antibody (clone W6/32) overnight at 4 C with end-over-end rotation. BAP-tagged samples were biotinylated with 0.56 μM biotin, 1 mM ATP, and 1 μM BirA biotin ligase for 10 minutes, and subsequently incubated with High-Capacity NeutrAvidin Agarose resin for 30 minutes at 4° C. with end-over-end rotation. Following enrichment, beads were washed 2× with wash buffer A [20 mM Tris-Cl pH 8, 100 mM, NaCl, 60 mM octyl B-D-glucopyranoside, 0.2 mM of 2-Iodoacetamide, 1 mM EDTA pH 8] and wash buffer B [10 mM Tris-Cl pH 8] using a positive pressure manifold. […]

HLA-C*04:01 [2] = biological target: T3, HLA-C*04:01 (human); assay: MS validation of HLA class I-presented peptide; sample CAMA1
T3 construct: MHC class I molecule expressed by the cells or tissue sample (endogenous or BAP-tagged), immunopurified before peptide elution
Description: as §1

HLA-C*06:02 [3] = biological target: T4, HLA-C*06:02 (human); assay: MS validation of HLA class I-presented peptide; sample human prostate
T4 construct: MHC class I molecule expressed by the cells or tissue sample (endogenous or BAP-tagged), immunopurified before peptide elution
Description: (§2) Frozen cell pellets endogenously expressing MHC molecules (untagged) or biotin acceptor peptide (BAP)-tagged MHC molecules were lysed by pipetting and end-over-end rotation for twenty minutes using lysis buffer [20 mM Tris-Cl pH 8, 100 mM NaCl, 6 mM MgCl2, 1.5% (v/v) Triton X-100, 60 mM octyl B-D-glucopyranoside, 0.2 mM of 2-Iodoacetamide, 1 mM EDTA pH 8, 1 mM PMSF, 1× complete EDTA-free protease inhibitor cocktail (Roche)] plus benzonase nuclease for twenty minutes. Tissue samples were homogenized in lysis buffer plus benzonase nuclease. All lysates were cleared by centrifugation. Samples with untagged MHC molecules were subsequently incubated with GammaBind Plus Sepharose Beads (GE Healthcare) pre-charged with a pan-HLA A/B/C antibody (clone W6/32) overnight at 4 C with end-over-end rotation. BAP-tagged samples were biotinylated with 0.56 μM biotin, 1 mM ATP, and 1 μM BirA biotin ligase for 10 minutes, and subsequently incubated with High-Capacity NeutrAvidin Agarose resin for 30 minutes at 4° C. with end-over-end rotation. Following enrichment, beads were washed 2× with wash buffer A [20 mM Tris-Cl pH 8, 100 mM, NaCl, 60 mM octyl B-D-glucopyranoside, 0.2 mM of 2-Iodoacetamide, 1 mM EDTA pH 8] and wash buffer B [10 mM Tris-Cl pH 8] using a positive pressure manifold. MHC molecules were eluted using 10% acetic acid and peptides were isolated using 10K molecular weight cut-off filtration following filter passivation with 1% bovine serum albumin (BSA). If required, samples were next reduced and alkylated using 5 mM Bond-Breaker TCEP solution at 60° C. for 30 min followed by 15 mM 2-Iodoacetamide for 30 min, protected from light. Samples were next acidified using 100% formic acid and desalted using 10 mg Sep-Pak tC18 μElution plates with peptide elutions at 15% acetonitrile and 50% acetonitrile, which were subsequently pooled. The volume of eluted peptides was reduced using vacuum centrifugation.

HLA-C*07:02 [4] = biological target: T5, HLA-C*07:02 (human); assay: MS validation of HLA class I-presented peptide (second allele under Allele (MS)); sample human prostate
T5 construct: MHC class I molecule expressed by the cells or tissue sample (endogenous or BAP-tagged), immunopurified before peptide elution
Description: as §1

HLA-A*02:01 [5] = biological target: T2, HLA-A*02:01; assay: MS validation of HLA class I-presented peptide; samples CAMA1, HCC1500
Description: as §1

HLA-A*02:01 [6] = biological target: T2, HLA-A*02:01; assay: MS validation of HLA class I-presented peptide; sample A375
Description: as §1

HLA-A*01:01 [7] = biological target: T6, HLA-A*01:01 (human); assay: MS validation of HLA class I-presented peptide; sample human prostate
T6 construct: MHC class I molecule expressed by the cells or tissue sample (endogenous or BAP-tagged), immunopurified before peptide elution
Description: as §2

HLA-C*07:02 [8] = biological target: T5, HLA-C*07:02; assay: as above
Description: as §2

HLA-C*06:02 [9] = biological target: T4, HLA-C*06:02; assay: MS validation of HLA class I-presented peptide; sample MDAPCa2b
Description: as §1

HLA-C*07:01 [10] = biological target: T7, HLA-C*07:01 (human); assay: MS validation of HLA class I-presented peptide; samples MDAPCa2b, human prostate
T7 construct: MHC class I molecule expressed by the cells or tissue sample (endogenous or BAP-tagged), immunopurified before peptide elution
Description: as §1

HLA-C*07:02 [11] = biological target: T5, HLA-C*07:02; assay: MS validation of HLA class I-presented peptide (second allele under Allele (MS)); samples MDAPCa2b, human prostate
Description: as §1

HLA-C*04:01 [12] = biological target: T3, HLA-C*04:01; assay: MS validation of HLA class I-presented peptide; samples B721, A375
Description: as §1

HLA-A*02:01 [13] = biological target: T2, HLA-A*02:01; assay: MS validation of HLA class I-presented peptide; samples lung tumor, GBM, OvCa13, breast tumor, A375, MSV000082648
Description: as §1

HLA-A*02:01 [14] = biological target: T2, HLA-A*02:01; assay: MS validation of HLA class I-presented peptide; sample human prostate
Description: as §2

HLA-A*24:02 [15] = biological target: T8, HLA-A*24:02 (human); assay: as above
T8 construct: MHC class I molecule expressed by the cells or tissue sample (endogenous or BAP-tagged), immunopurified before peptide elution
Description: as §2

HLA-A*02:01 [16] = biological target: T2, HLA-A*02:01; assay: MS validation of HLA class I-presented peptide; samples CD165, HCC1500, CAMA1
Description: as §1

HLA-C*04:01 [17] = biological target: T3, HLA-C*04:01; assay: MS validation of HLA class I-presented peptide; sample human prostate
Description: as §2

HLA-B*07:02 [18] = biological target: T9, HLA-B*07:02 (human); assay: as above
T9 construct: MHC class I molecule expressed by the cells or tissue sample (endogenous or BAP-tagged), immunopurified before peptide elution
Description: as §2

HLA-C*07:01 [19] = biological target: T7, HLA-C*07:01; assay: MS validation of HLA class I-presented peptide; samples MDAPCa2b, human prostate, breast cancer
Description: as §1

HLA-B*07:02 [20] = biological target: T9, HLA-B*07:02; assay: MS validation of HLA class I-presented peptide (second allele under Allele (MS)); samples MDAPCa2b, human prostate, breast cancer
Description: as §1

HLA-A*01:01 [21] = biological target: T6, HLA-A*01:01; assay: MS validation of HLA class I-presented peptide; samples GBM, A375
Description: as §1

HLA-A*24:02 [22] = biological target: T8, HLA-A*24:02; assay: MS validation of HLA class I-presented peptide (validation cell empty in Table 1C); sample human prostate

HPEYNRPLL (listed as Homo sapiens) was tested, and the “dot product similarity score of peptide fragment ions” value (class I HLA molecules) was 0.992.

SLLQHLIGL: binds (HLA-A*02:01 [1]).

SIPTKALEL: binds (HLA-C*04:01 [2]).

IRNKSVILL: binds (HLA-C*06:02 [3]); binds (HLA-C*07:02 [4]).

NRPLLANDL: binds (HLA-C*06:02 [3]); binds (HLA-C*07:02 [4]).

SLDQKLFQL: binds (HLA-A*02:01 [5]).

KVLEHVVRV: binds (HLA-A*02:01 [6]).

YSEKVTEFML: binds (HLA-A*01:01 [7]).

LRPGDDSTL (4002 is used here): binds (HLA-C*07:02 [8]).

AYSEKVTEF: binds (HLA-C*06:02 [9]).

QRVPVSHSF: binds (HLA-C*07:01 [10]); binds (HLA-C*07:02 [11]).

VFQVSHSF: binds (HLA-C*07:02 [8]).

SVPNKALEL: binds (HLA-C*04:01 [12]).

GVYDGREHTV: binds (HLA-A*02:01 [13]).

LLANGRMPTV: binds (HLA-A*02:01 [14]).

LFHPEDTGQVF: binds (HLA-A*24:02 [15]).

KVDELAHFL: binds (HLA-A*02:01 [6]).

LLSHGAVIEV: binds (HLA-A*02:01 [16]).

TWIAPPLQV: binds (HLA-C*04:01 [17]).

MPALPMVL: binds (HLA-B*07:02 [18]).

HPEYNRPLL: binds (HLA-C*07:01 [19]); binds (HLA-B*07:02 [20]).

EVDPASNTY: binds (HLA-A*01:01 [21]).

GYLQGLVSF: binds (HLA-A*24:02 [22]).

SLSKILDTV: binds (HLA-A*02:01 [5]).
